Source: the supplement of paper PMC6757056
± gives the standard deviation of the averaged measurements.

B1: library; a variant is named by its letters at N, in order (parent)
chain: GCUGUCACCGAGAAACUGUGAAGUAUAUCUUAAACCUGGGCACUUAAAAGAUAUAUGGAGUUAGUAGUGCAACCUGCUCGGUCUGAUGAGUCCNNNNNNGGACGAAACAGC

What was measured:
[1] = variants of: B1; experiment: normalized RNA/DNA level without ligand (relative to sTRSVctl = 100) (log10 (% of sTRSVctl)); HEK293T; ligand: cyclic di-GMP (c-di-GMP-II aptamer); higher = less ribozyme self-cleavage, higher mRNA level; settings: reporter: mCherry (pCS4076), ligand present: no
Method in brief: (§1)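 Library plasmids carrying ribozyme switches linked to mCherry, or to eGFP in some ligand experiments, were transfected into HEK293T at 4 µg per 6-well well, with any ligand added 1 h earlier. Seventy-two hours on, total RNA was extracted with EDTA and reverse-transcribed, amplified, barcoded and sequenced. RNA level was RNA over DNA reads normalized to a spiked-in non-cleaving sequence or to the top sequences, then scaled and log-transformed. The top set was 25 sequences, the transform was ×100 and log10, and sequences needed ≥100 DNA reads.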

[2] = variants of: B1; experiment: normalized RNA/DNA level with ligand (relative to sTRSVctl = 100) (log10 (% of sTRSVctl)); HEK293T; ligand: cyclic di-GMP (c-di-GMP-II aptamer); ligand concentration (+) RNA-Seq: 1 mM; higher = less ribozyme self-cleavage, higher mRNA level; settings: reporter: mCherry (pCS4076), ligand present: yes
Method in brief: as §1

Row | Variant | normalized RNA/DNA level without ligand (log10) [1] | normalized RNA/DNA level with ligand (log10) [2]
1 | ACACGC | 1.554 ± 0.0051 | 1.76 ± 0.13
2 | CCAAUU | 1.58 ± 0.06 | 1.72 ± 0.086
3 | CCAAUC | 1.55 ± 0.1 | 1.71 ± 0.1
4 | ACAACG | 1.46 ± 0.1 | 1.65 ± 0.12
5 | ACAACC | 1.67 ± 0.02 | 1.82 ± 0.1
6 | ACAACA | 1.46 ± 0.076 | 1.68 ± 0.099
7 | CAUUAG | 1.74 ± 0.021 | 1.84 ± 0.087
8 | CAUUAC | 1.6236 ± 0.00067 | 1.79 ± 0.13
9 | CCACAA | 1.51 ± 0.032 | 1.7 ± 0.11
10 | CCACAC | 1.65 ± 0.037 | 1.79 ± 0.073
11 | CCACAG | 1.54 ± 0.028 | 1.75 ± 0.18
12 | UAUUAU | 1.682 ± 0.011 | 1.82 ± 0.14
13 | UAUUAG | 1.73 ± 0.042 | 1.87 ± 0.068
14 | CCAGUG | 1.27 ± 0.14 | 1.48 ± 0.06
15 | UCAGCU | 1.671 ± 0.0017 | 1.82 ± 0.15
16 | UCAGCA | 1.672 ± 0.004 | 1.82 ± 0.097
17 | UCAGCC | 1.818 ± 0.0024 | 1.88 ± 0.14
18 | GCACCG | 1.72 ± 0.037 | 1.86 ± 0.11
19 | GCACCU | 1.6643 ± 0.00076 | 1.85 ± 0.14
20 | GCACCC | 1.66 ± 0.027 | 1.84 ± 0.075
21 | GCACCA | 1.586 ± 0.0036 | 1.75 ± 0.11
22 | GAUUGU | 1.65 ± 0.037 | 1.82 ± 0.09
23 | GAUUGC | 1.685 ± 0.0072 | 1.84 ± 0.12
24 | UAUUUG | 1.732 ± 0.0073 | 1.86 ± 0.1

Row | Variant | normalized RNA/DNA level without ligand (log10) [1] | normalized RNA/DNA level with ligand (log10) [2]
25 | UAUUUC | 1.75 ± 0.0095 | 1.87 ± 0.1
26 | UAUUUA | 1.707 ± 0.0067 | 1.84 ± 0.12
27 | UAUUUU | 1.73 ± 0.062 | 1.84 ± 0.13
28 | GCAACC | 1.647 ± 0.0045 | 1.79 ± 0.097
29 | GCAACU | 1.582 ± 0.0092 | 1.77 ± 0.13
30 | GCAACG | 1.54 ± 0.046 | 1.78 ± 0.11
31 | UCACCG | 1.75 ± 0.024 | 1.89 ± 0.12
32 | UCACCU | 1.7414 ± 0.00048 | 1.89 ± 0.12
33 | UCACCC | 1.83 ± 0.032 | 1.88 ± 0.096
34 | GCAAAA | 1.35 ± 0.18 | 1.59 ± 0.078
35 | GCAAUU | 1.48 ± 0.086 | 1.69 ± 0.1
36 | GCAGAU | 1.43 ± 0.093 | 1.6 ± 0.083
37 | GCAGAC | 1.42 ± 0.068 | 1.59 ± 0.079
38 | GCACGG | 1.55 ± 0.053 | 1.66 ± 0.12
39 | GCACGU | 1.49 ± 0.07 | 1.7 ± 0.12
40 | GCACGC | 1.66 ± 0.027 | 1.78 ± 0.2
41 | ACAAAC | 1.55 ± 0.084 | 1.72 ± 0.091
42 | ACAAAG | 1.4 ± 0.073 | 1.6 ± 0.06
43 | GAUUUC | 1.79 ± 0.13 | 1.9 ± 0.12
44 | GAUUUG | 1.6 ± 0.025 | 1.76 ± 0.11
45 | GAUUUU | 1.656 ± 0.01 | 1.81 ± 0.14
46 | ACAAGG | 1.33 ± 0.17 | 1.54 ± 0.098
47 | AAUUUA | 1.61 ± 0.031 | 1.81 ± 0.15
48 | AAUUUC | 1.721 ± 0.0067 | 1.87 ± 0.08

Row | Variant | normalized RNA/DNA level without ligand (log10) [1] | normalized RNA/DNA level with ligand (log10) [2]
49 | AAUUUU | 1.73 ± 0.033 | 1.85 ± 0.12
50 | AAUUUG | 1.62 ± 0.071 | 1.75 ± 0.12
51 | AAUUGC | 1.696 ± 0.016 | 1.83 ± 0.091
52 | AAUUGU | 1.66 ± 0.061 | 1.83 ± 0.075
53 | AAUUGA | 1.49 ± 0.096 | 1.72 ± 0.083
54 | CAUGCU | 1.72 ± 0.056 | 1.84 ± 0.097
55 | CAUGCC | 1.79 ± 0.029 | 1.89 ± 0.15
56 | CAUGCA | 1.52 ± 0.05 | 1.66 ± 0.067
57 | CAUGCG | 1.81 ± 0.029 | 1.9 ± 0.14
58 | AAUUAC | 1.72 ± 0.068 | 1.83 ± 0.099
59 | AAUUAU | 1.67 ± 0.03 | 1.82 ± 0.1
60 | AAUUAG | 1.6 ± 0.029 | 1.76 ± 0.11
61 | UCAAGG | 1.8 ± 0.067 | 1.89 ± 0.12
62 | UCAAGA | 1.52 ± 0.0098 | 1.74 ± 0.098
63 | UCAAGC | 1.63 ± 0.031 | 1.76 ± 0.1
64 | UCAAGU | 1.52 ± 0.048 | 1.73 ± 0.1
65 | GCAUAA | 1.41 ± 0.19 | 1.61 ± 0.064
66 | GCAUAU | 1.528 ± 0.014 | 1.72 ± 0.06
67 | UCACUC | 1.73 ± 0.068 | 1.89 ± 0.12
68 | UCACUG | 1.632 ± 0.0038 | 1.81 ± 0.16
69 | UCACUA | 1.51 ± 0.022 | 1.73 ± 0.099
70 | GCAUCG | 1.59 ± 0.045 | 1.76 ± 0.099
71 | GCAUCA | 1.61 ± 0.11 | 1.77 ± 0.12
72 | GCAUCC | 1.65 ± 0.077 | 1.82 ± 0.052

Row | Variant | normalized RNA/DNA level without ligand (log10) [1] | normalized RNA/DNA level with ligand (log10) [2]
73 | CCAUAG | 1.4 ± 0.17 | 1.66 ± 0.043
74 | CCAUAU | 1.55 ± 0.041 | 1.73 ± 0.071
75 | CCAUAC | 1.632 ± 0.0016 | 1.78 ± 0.075
76 | AAUGCG | 1.704 ± 0.0078 | 1.82 ± 0.15
77 | AAUGCA | 1.666 ± 0.0048 | 1.78 ± 0.14
78 | AAUGCU | 1.73 ± 0.036 | 1.85 ± 0.12
79 | AAUGCC | 1.73 ± 0.034 | 1.83 ± 0.11
80 | CAUUUU | 1.535 ± 0.0069 | 1.76 ± 0.16
81 | CAUUUG | 1.75 ± 0.062 | 1.91 ± 0.095
82 | CAUUUC | 1.67 ± 0.022 | 1.82 ± 0.14
83 | CAUGUC | 1.72 ± 0.035 | 1.82 ± 0.088
84 | CAUGUG | 1.71 ± 0.022 | 1.85 ± 0.092
85 | CAUGUA | 1.44 ± 0.081 | 1.65 ± 0.072
86 | CAUGUU | 1.72 ± 0.043 | 1.88 ± 0.085
87 | UCAUAA | 1.47 ± 0.065 | 1.67 ± 0.087
88 | UCAUAG | 1.65 ± 0.02 | 1.77 ± 0.17
89 | UCAUAU | 1.54 ± 0.037 | 1.72 ± 0.13
90 | UCAUAC | 1.674 ± 0.011 | 1.81 ± 0.11
91 | GAUGGG | 1.54 ± 0.081 | 1.67 ± 0.16
92 | GAUGGC | 1.68 ± 0.051 | 1.8 ± 0.13
93 | GAUGGU | 1.64 ± 0.057 | 1.8 ± 0.063
94 | UAUGGC | 1.708 ± 0.015 | 1.82 ± 0.12
95 | UAUGGG | 1.57 ± 0.078 | 1.73 ± 0.1
96 | UAUGGA | 1.53 ± 0.017 | 1.73 ± 0.098

Row | Variant | normalized RNA/DNA level without ligand (log10) [1] | normalized RNA/DNA level with ligand (log10) [2]
97 | ACAUAU | 1.45 ± 0.097 | 1.64 ± 0.14
98 | AAUGUA | 1.525 ± 0.01 | 1.64 ± 0.16
99 | AAUGUC | 1.68 ± 0.03 | 1.84 ± 0.11
100 | UCACAC | 1.7 ± 0.0024 | 1.81 ± 0.13
101 | UCACAG | 1.667 ± 0.0019 | 1.83 ± 0.083
102 | UCACAA | 1.547 ± 0.011 | 1.72 ± 0.087
103 | UCACAU | 1.58 ± 0.048 | 1.78 ± 0.087
104 | ACAUCC | 1.68 ± 0.047 | 1.83 ± 0.14
105 | ACAUCG | 1.51 ± 0.1 | 1.71 ± 0.16
106 | ACAUCA | 1.683 ± 0.013 | 1.79 ± 0.063
107 | CCAGGU | 1.69 ± 0.061 | 1.82 ± 0.081
108 | CCAGGA | 1.5 ± 0.088 | 1.71 ± 0.12
109 | CCAGGG | 1.52 ± 0.025 | 1.77 ± 0.12
110 | ACACAC | 1.633 ± 0.0097 | 1.81 ± 0.09
111 | ACACAA | 1.41 ± 0.056 | 1.66 ± 0.16
112 | ACACAU | 1.46 ± 0.06 | 1.67 ± 0.092
113 | UCAGUU | 1.52 ± 0.16 | 1.74 ± 0.13
114 | UAUGUC | 1.73 ± 0.034 | 1.85 ± 0.099
115 | UAUGUU | 1.65 ± 0.008 | 1.79 ± 0.15
116 | UAUGUG | 1.71 ± 0.047 | 1.86 ± 0.13
